Reference: patent publication US12551573B2, “Compositions and methods for the targeting of PCSK9” (Scribe Therapeutics Inc., priority 2022, dated 2026)
Substitutions are numbered along the chain they refer to.

B1: DOMAIN_5125 (protein, listed as Callithrix sp.)
chain: MPANEDTPQPGGHGSACEVSVSFEDVTVDFSREEWQQLDSTQRRLYQDVMLENYSHLLSVGFEVPKPEVIFKLEQGEGPWT
B2: DOMAIN_6938 (protein, listed as Alligator mississippiensis)
chain: SKLPEAFEDVAVYFTRKEWELLEAGDKGLYQDQMLRNYQALVSLGLQGPAPDLICRMQLGEMELWVCDDEEAGESSLSEDF
B3: DOMAIN_6356 (protein, listed as Terrapene carolina)
chain: MSVTFEDVAMYFSPAEWVLLGEEQKQLYRHVMWENYQTLVSLGIQISKPVVISSIERGEELWAQSPTEDEDEDILSGTSPG
B4: DOMAIN_6472 (protein, listed as Alligator sinensis)
chain: VVLLEAFEDVAVYFTQKEWALLDDGDKALYRDQMLRNYQALISLGYRGPTPALINRIQRGEMELWVCDKDYGEKSSLEGLF
B5: DOMAIN_6738 (protein)
chain: FQTLLAFEDVAVFFSEEEWELLDELQKEVYKNTMRENYETLLSLGLTNMKPEIIAKIDAGEAPSVQNASYLEKRGKKSAAG
modifications: Microcaecilia unicolor
B6: DOMAIN_6410 (protein, listed as Podarcis muralis)
chain: GLVSFDEVSVHFTNEEWALLDPGQRALYEEVMEEIREMMTSVGDVSEFLTEGEQSEPSREGAEEQKEQRKQRVQVGTYRKE
B7: DOMAIN_6433 (protein, listed as Podarcis muralis)
chain: B6 chain with L2S, H11R, T13S, P57L, K80N
B8: DOMAIN_6697 (protein, listed as Podarcis muralis)
chain: B6 chain with L2S, H11R, T13S
B9: DOMAIN_5440 (protein, listed as Aotus trivirgatus)
chain: MAVDLLPAQESMTFRDVAVFFSQDEWLHLDSAQRALYREVMLENYSTLVSLGIPFSMPKVIHQLQQGQDPCMVEGEVPSDI
B10: DOMAIN_5946 (protein, listed as Homo sapiens)
chain: RQAFLAFGDVTVDFTQKEWRLLSPAQRALYREVTLENYSHLVSLGILHSKPELIRRLEQGEVPWGEERRRRPGPCAGIYAE
B11: DOMAIN_5006 (protein, listed as Callithrix sp.)
chain: MAFEDVAVYFSQEEWGLLDTAQRALYRRVMLDNFALVASLGLSTSRPRVVIQLERGEEPWVPSETDMTMSRNTHRRRNPGS
B12: DOMAIN_7183 (protein)
chain: VQVPVTFEDVAVYFSEDEWGMLAGWQKELYKETMKENYETLTLLGCLSEKPSLISKIEREEDPCVRDQQDPRDRRKLRSSW
modifications: Microcaecilia unicolor
B13: DOMAIN_6807 (protein, listed as Xenopus laevis)
chain: LVKFEEVAVVFSEDEWNLLSDQQRGLYMEVMKENYEHLIYLGYEVPVILSLLQDGGGISSDAGSQSKSQQVAVAEGSNVNS
B14: DOMAIN_7353 (protein)
chain: AQMQVTFEDIAVFFCHEEWKYLDDGQKELYKEVMKENYETLISLGFLCEKPSLISKIEREEDPCVRDQQDFRERRRRLKSF
modifications: Microcaecilia unicolor
B15: DOMAIN_5791 (protein, listed as Homo sapiens)
chain: EPGAVSFADVAVYFCREEWGCLRPAQRALYRDVMRETYGHLSALGIGGNKPALISWVEEEAELWGPAAQDPEVAKCQTQTD
B16: DOMAIN_6952 (protein, listed as Alligator mississippiensis)
chain: DQLQEAFEDVALYFTQNEWELLGDGDKVLYRDQMLRNYQALVSLGYQGPAPDLISRIQRQEVELWVCEEENPGESVWTEGL
B17: DOMAIN_7098 (protein)
chain: QVPVIFEDVAVYFWEEEWEMLEEWQKELYKETMKENYKTLVSLGMELPTEKPDLIVRIEREENPCVKAQWDSRDKTRWRNS
modifications: Microcaecilia unicolor
B18: DOMAIN_6398 (protein, listed as Gopherus agassizii)
chain: MPVTFEEVAVYFTEGQGALLDPAQRALYRDVMQEIYEMVISLGFLLPKPDVIIQLERGEEPWVPDLQGSAEREMSRGTCAG
B19: DOMAIN_7109 (protein)
chain: MRVTFEDIAVSFSQEEWEYLDEEQKELYREVMKENYQTLISLGAGSLTFTPEIISHIERGEEPYSRDEPGSGEREPGKSRC
modifications: Microcaecilia unicolor
B20: DOMAIN_5188 (protein, listed as Aotus trivirgatus)
chain: MITAQGPVSFRDVTVGFTQEEWQHLDPAQRTLYRDVMIENYSHLVSVGYCIPKPEVILKLEKGEEPWISEEKFPSQSHLEL
B21: DOMAIN_5005 (protein, listed as Callithrix sp.)
chain: MAFEDVAVYFSEEEWGLLDTAQRALYRHVMLENFTLVTSLGLSTSRPLVVIQLERGEDPWVPSVKDMTLARNAYGRRTTGS
B22: DOMAIN_4774 (protein, listed as Callithrix sp.)
chain: HGSSYEGSVSFRDVAINFSREEWRHLDLSQRNLYWDVMLETYSHLLSVGYQFPKPEVVMLEQGNEPWALQGERPRHSCPGE
B23: DOMAIN_6445 (protein, listed as Alligator sinensis)
chain: MELREAFEDVAVYFTRKEWELLEDEDKELYRDLMLRNYQALVSLGYQGPTPGLICRIKQREVELWVCDDEHHGESSVSENL
B24: DOMAIN_7184 (protein)
chain: TQMQVKFDDIAVSFSQEEWKYLDEEQKELYREVMKENYQILISLGTGSSTTPKIISHIERGEEPYIRDEPVLVERKTGKSS
modifications: Microcaecilia unicolor
B25: DOMAIN_6737 (protein)
chain: QMLVTFEDIAVSFSKEEWEYLDEGQKELYREVMKENYQTLISLGTGFPTVIPEIISHIEQGDEPGSEERENGKSSCSGESG
modifications: Microcaecilia unicolor
B26: DOMAIN_8012 (protein, listed as Callipepla squamata)
chain: PSVPVTFRDVFVQFSRDEWALLDDEQKELHQSVMQSNYEVLMSLYCDLAKPEVLLQMERGEPCLPAEPDLQGAAVSLNPAA
B27: DOMAIN_7813 (protein, listed as Columba livia)
chain: WQEPVTFEDVAVYLSHAEWDAMAPEQRELYCSVMLDNYQLLASLGYPGPKPDIVYRLERGEEPWGCAPQSPLSWDGPRSPS
B28: DOMAIN_7774 (protein)
chain: PQDSVTFEEVAVSFSREEWALLTDWQKNLYKDVMRDNYEMLNSLDLAAHKPDIILRIERGQEPCVGRLQRSKARERPNHVF
modifications: Pogona vitticeps
B29: DOMAIN_8340 (protein, listed as Peromyscus maniculatus)
chain: EQDAVTYEDVHVNFTHEEWALLDPSQKSLYKDVMMETYWNLTCIGYKWEDHNIEEHCQSCRRNGSRCVICHSGHNPCEHKG
B30: DOMAIN_8425 (protein, listed as Peromyscus maniculatus)
chain: HKKSMVFSDVSLDFSQEEWECLGPAQKDLYRDVMLENYSHLLSVAGLHIPKPQVISLLEQGKEPWMIGKELTRGLCSALES
B31: DOMAIN_8036 (protein, listed as Alligator mississippiensis)
chain: AQRWEAFEDVALYFTQKEWELLRDGDKVLYQEQMLRNYQALVSLGYQGPTPDLICRIQRGDMELWVCDDEDPKESMWSEGL
B32: DOMAIN_8282 (protein, listed as Peromyscus maniculatus)
chain: FQNSLTYDDVHINFTCEEWALLDASQKRLYKDVMLETYSNLTAIGYKWEDHNIEEHCQRFRRRGRHKRSRTEERPYECKQC
B33: DOMAIN_7605 (protein, listed as Alligator sinensis)
chain: SKLSEAFEDVAVYFTWKEWALLEAADKMLYRDQMLKNYQALFSLGYRGPTPDLICRIQRGEMELWVSDLEEAGESSLSEDS
B34: DOMAIN_8317 (protein, listed as Mus caroli)
chain: CQALVTFEDVAVTFTDDEWKRLVPVQRALYKAVMLENYESIISLGLPVPRPDLILQFKRRGEPWMRGFHGSEEKAWPESVS
B35: DOMAIN_7716 (protein)
chain: VAFEDVAVYFTAEEWDLLGPNQKSLYSEVMMENYENVSYLADNWKKTIAFAHSQKDFIHKLHQRTHKEDEHHTRAEPCEST
modifications: Pogona vitticeps
B36: DOMAIN_7607 (protein, listed as Alligator sinensis)
chain: MEPRDAFEDVAVYFTREEWALLDDGDKGLYRDQMLRNYQALVSLGYRGPTPDLICCIQRGKVELWVRDGEDHGEISGSEDL
B37: DOMAIN_8424 (protein, listed as Peromyscus maniculatus)
chain: MDAVTYEDVQVSFTREEWTLLDPSQKSLYKDVMVETYRNLTAIGYKWEDQNIKKHHQCSRRHGRHERSNSAEKDYECEQCG

The molecules below were run on HBEGF locus. Conditions: high-throughput screen of dXR repression of the HBEGF gene; change in abundance of each domain in the library before and after diphtheria toxin selection.
Type: cell-based, human

Molecule	Log2 (fold change)
B1	2.911
B2	2.6093
B3	2.9197
B4	2.9259
B5	2.9275
B6	2.7633
B7	3.0313
B8	2.6712
B9	2.7871
B10	3.2998
B11	3.8614
B12	2.4918
B13	3.1615
B14	2.6649
B15	2.6823
B16	2.3403
B17	2.7074
B18	2.8238
B19	2.9932
B20	2.1842
B21	2.8406
B22	2.8894
B23	3.1151
B24	2.2019
B25	2.4861

Same assay, conditions: repressor domain in dXR, repression of the HBEGF gene; abundance of domain in library after vs before diphtheria toxin selection

Molecule	Log2 (fold change)
B26	3.2046
B27	3.4645
B28	3.427
B29	2.2764
B30	2.8391
B31	2.3504
B32	3.9882
B33	2.8444
B34	3.3091
B35	3.1171
B36	2.7102
B37	2.7945
